This is an account of results in PMC3386216 (Molecular Biology of the Cell, 2012).

For test [1], the target named is Sac1 (amino acids 2–521) (untagged recombinant, SPR) (S. cerevisiae) (UniProt P32368). Description: SPR.
In test [2] the target is T1, GST-Sac1 (amino acids 2–521) (S. cerevisiae, UniProt P32368 2-521).
T1 sequence: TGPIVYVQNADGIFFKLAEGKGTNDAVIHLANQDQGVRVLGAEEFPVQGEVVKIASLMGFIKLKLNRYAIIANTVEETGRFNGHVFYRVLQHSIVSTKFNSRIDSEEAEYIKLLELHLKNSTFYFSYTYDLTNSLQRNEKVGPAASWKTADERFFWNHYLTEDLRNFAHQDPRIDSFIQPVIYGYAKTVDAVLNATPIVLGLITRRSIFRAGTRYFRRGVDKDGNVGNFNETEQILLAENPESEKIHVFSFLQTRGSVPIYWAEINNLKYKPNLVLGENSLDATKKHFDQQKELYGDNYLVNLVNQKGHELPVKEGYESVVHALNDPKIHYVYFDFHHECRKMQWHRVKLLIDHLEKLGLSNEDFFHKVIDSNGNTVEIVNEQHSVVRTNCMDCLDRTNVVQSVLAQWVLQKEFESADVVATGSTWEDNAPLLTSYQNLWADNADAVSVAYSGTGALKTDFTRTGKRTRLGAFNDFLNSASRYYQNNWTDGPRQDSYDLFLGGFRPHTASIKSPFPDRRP
Put plainly: pull-down.

B1: His- and T7-tagged Vps74 (natural protein)
chain: MSTLQRRRVNRADSGDTSSIHSSANNTKGDKIANIAVDGDDDNGTNKKIAYDPEESKLRDNINIPTLTLMEEVLLMGLRDREGYLSFWNDSISYALRGCIIIELALRGKIRILDDSARKRFDLSERLIEVIDSSKTGEVLLDETLQLMKNDEPLSISNWIDLLSGETWNLLKINYQLKQVRERLAKGLVDKGVLRTEMKNFFLFDMATHPIADASCKEAIKRRVLSVLVSRNMELSYNEYFPETTSFKIIRTLALICGSYGANVLENVLTTLEYEKRDKAISRAEEIMAQFSQYPFDLEKETELGVSVNLNKEVKEEIENNPGHDLQLEVIAGVFEVFSRMDMLL
On to B1, for which, in test [1], the Kd came to 3.8 µM. In addition, the binding result in test [2] is on record as “binds”.

B2: Vps74ΔN59 (domain or fragment)
chain: DNINIPTLTLMEEVLLMGLRDREGYLSFWNDSISYALRGCIIIELALRGKIRILDDSARKRFDLSERLIEVIDSSKTGEVLLDETLQLMKNDEPLSISNWIDLLSGETWNLLKINYQLKQVRERLAKGLVDKGVLRTEMKNFFLFDMATHPIADASCKEAIKRRVLSVLVSRNMELSYNEYFPETTSFKIIRTLALICGSYGANVLENVLTTLEYEKRDKAISRAEEIMAQFSQYPFDLEKETELGVSVNLNKEVKEEIENNPGHDLQLEVIAGVFEVFSRMDMLL
Turning to B2, the Kd in test [1] was 4.2 µM.
